Assay results taken from publication doi:10.1101/800508 (bioRxiv, 2019).

B2: Rsc8, subunit of RSC (natural protein)
chain: MSDTEKDKDVPMVDSHEATEEPPTTSTNTPSFPHLAQEQAKEESATLGAEVAHKKINYEQEAQKLEEKALRFLAKQTHPVIIPSFASWFDISKIHEIEKRSNPDFFNDSSRFKTPKAYKDTRNFIINTYRLSPYEYLTITAVRRNVAMDVASIVKIHAFLEKWGLINYQIDPRTKPSLIGPSFTGHFQVVLDTPQGLKPFLPENVIKQEVEGGDGAEPQVKKEFPVNLTIKKNVYDSAQDFNALQDESRNSRQIHKVYICHTCGNESINVRYHNLRARDTNLCSRCFQEGHFGANFQSSDFIRLENNGNSVKKNWSDQEMLLLLEGIEMYEDQWEKIADHVGGHKRVEDCIEKFLSLPIEDNYIREVVGSTLNGKGGDSRDGSVSGSKLMECVNDAVQTLLQGDDKLGKVSDKSREISEKYIEESQAIIQELVKLTMEKLESKFTKLCDLETQLEMEKLKYVKESEKMLNDRLSLSKQILDLNKSLEELNVSKKLVLISEQVDSGIQLVEKDQEGDDEDGNTATGHGVKRVGKEGEEVGEGDSIAKLQPQVYKPWSL
B7: Sth1, ATPase subunit of RSC (enzyme)
chain: MLQEQSELMSTVMNNTPTTVAALAAVAAASETNGKLGSEEQPEITIPKPRSSAQLEQLLYRYRAIQNHPKENKLEIKAIEDTFRNISRDQDIYETKLDTLRKSIDKGFQYDEDLLNKHLVALQLLEKDTDVPDYFLDLPDTKNDNTTAIEVDYSEKKPIKISADFNAKAKSLGLESKFSNATKTALGDPDTEIRISARISNRINELERLPANLGTYSLDDCLEFITKDDLSSRMDTFKIKALVELKSLKLLTKQKSIRQKLINNVASQAHHNIPYLRDSPFTAAAQRSVQIRSKVIVPQTVRLAEELERQQLLEKRKKERNLHLQKINSIIDFIKERQSEQWSRQERCFQFGRLGASLHNQMEKDEQKRIERTAKQRLAALKSNDEEAYLKLLDQTKDTRITQLLRQTNSFLDSLSEAVRAQQNEAKILHGEEVQPITDEEREKTDYYEVAHRIKEKIDKQPSILVGGTLKEYQLRGLEWMVSLYNNHLNGILADEMGLGKTIQSISLITYLYEVKKDIGPFLVIVPLSTITNWTLEFEKWAPSLNTIIYKGTPNQRHSLQHQIRVGNFDVLLTTYEYIIKDKSLLSKHDWAHMIIDEGHRMKNAQSKLSFTISHYYRTRNRLILTGTPLQNNLPELWALLNFVLPKIFNSAKTFEDWFNTPFANTGTQEKLELTEEETLLIIRRLHKVLRPFLLRRLKKEVEKDLPDKVEKVIKCKLSGLQQQLYQQMLKHNALFVGAGTEGATKGGIKGLNNKIMQLRKICNHPFVFDEVEGVVNPSRGNSDLLFRVAGKFELLDRVLPKFKASGHRVLMFFQMTQVMDIMEDFLRMKDLKYMRLDGSTKTEERTEMLNAFNAPDSDYFCFLLSTRAGGLGLNLQTADTVIIFDTDWNPHQDLQAQDRAHRIGQKNEVRILRLITTDSVEEVILERAMQKLDIDGKVIQAGKFDNKSTAEEQEAFLRRLIESETNRDDDDKAELDDDELNDTLARSADEKILFDKIDKERMNQERADAKAQGLRVPPPRLIQLDELPKVFREDIEEHFKKEDSEPLGRIRQKKRVYYDDGLTEEQFLEAVEDDNMSLEDAIKKRREARERRRLRQNGTKENEIETLENTPEASETSLIENNSFTAAVDEETNADKETTASRSKRRSSRKKRTISIVTAEDKENTQEESTSQENGGAKVEEEVKSSSVEIINGSESKKKKPKLTVKIKLNKTTVLENNDGKRAEEKPESKSPAKKTAAKKTKTKSKSLGIFPTVEKLVEEMREQLDEVDSHPRTSIFEKLPSKRDYPDYFKVIEKPMAIDIILKNCKNGTYKTLEEVRQALQTMFENARFYNEEGSWVYVDADKLNEFTDEWFKEHSS

Experiments:
Experiment in all cases: cryo-EM structure
Rsc8, subunit of RSC = biological target: B2
cryo-EM structure = biological target: the molecule itself
[1] = biological target: B7
[2] = biological target: histone H4 (Xenopus laevis) (Xenopus laevis, UniProt P62799 2-103)

B1: Rsc6, subunit of RSC (natural protein)
chain: MVTQTNPVPVTYPTDAYIPTYLPDDKVSNLADLKKLIEMDSRLDLYLTRRRLDTSINLPTNTKTKDHPPNKEMLRIYVYNTTESSPRSDSGTPADSGKTTWTLRIEGKLLHESANGKHPFSEFLEGVAVDFKRLKPLGMGKKRKRDSSLSLPLNLQQPEYNDQDSTMGDNDNGEDEDSAEAESREEIVDALEWNYDENNVVEFDGIDIKRQGKDNLRCSITIQLRGVDGGKVQYSPNLATLIGMQTGSVNDAVYSIYKYILINNLFVTEQTEAQDGSNDAEDSSNENNNKNGAGDDDGVEGSTPKDKPELGEVKLDSLLQKVLDTNAAHLPLMNVVQTVNKLVSPLPPIILDYTIDLSKDTTYGATTLDVDVSHILHQPQPQPNLQKEEETDAEDTAKLREITKLALQLNSSAQKYQFFHELSLHPRETLTHYLWSSKQNELVLQGDQYFNEDAARTSDIYSNNNNDRSLMGNISLLYSQGRL
binding result (Rsc8, subunit of RSC): binds

B2
stoichiometry N (cryo-EM structure): 2

B3: Rtt102, subunit of RSC (natural protein)
chain: MDPQTLITKANKVSYYGNPTSKESWRYDWYQPSKVSSNVQQPQQQLGDMENNLEKYPFRYKTWLRNQEDEKNLQRESCEDILDLKEFDRRILKKSLMTSHTKGDTSKATGAPSANQGDEALSVDDIRGAVGNSEAIPGLSAGVNNDNTKESKDVKMN
binding result [1]: binds

B4: Arp9, actin-related protein, subunit of RSC (natural protein)
chain: MAPFRQDSILIIYPRSQTTLVQFGLNEETFTVPELEIPTQIYRTTRQDGSYTYHSTNKDNKAELIKPIQNGEIIDISAFTQFLRLIFVSILSDRANKNQDAFEAELSNIPLLLITHHSWSQSDLEIITQYVFESLEINNLIQLPASLAATYSMISLQNCCIIDVGTHHTDIIPIVDYAQLDHLVSSIPMGGQSINDSLKKLLPQWDDDQIESLKKSPIFEVLSDDAKKLSSFDFGNENEDEDEGTLNVAEIITSGRDTREVLEERERGQKVKNVKNSDLEFNTFWDEKGNEIKVGKQRFQGCNNLIKNISNRVGLTLDNIDDINKAKAVWENIIIVGGTTSISGFKEALLGQLLKDHLIIEPEEEKSKREEEAKSVLPAATKKKSKFMTNSTAFVPTIEYVQCPTVIKLAKYPDYFPEWKKSGYSEIIFLGAQIVSKQIFTHPKDTFYITREKYNMKGPAALWDVQF
binding result [1]: binds

B5: Arp7, actin-related protein, subunit of RSC (natural protein)
chain: MTLNRKCVVIHNGSHRTVAGFSNVELPQCIIPSSYIKRTDEGGEAEFIFGTYNMIDAAAEKRNGDEVYTLVDSQGLPYNWDALEMQWRYLYDTQLKVSPEELPLVITMPATNGKPDMAILERYYELAFDKLNVPVFQIVIEPLAIALSMGKSSAFVIDIGASGCNVTPIIDGIVVKNAVVRSKFGGDFLDFQVHERLAPLIKEENDMENMADEQKRSTDVWYEASTWIQQFKSTMLQVSEKDLFELERYYKEQADIYAKQQEQLKQMDQQLQYTALTGSPNNPLVQKKNFLFKPLNKTLTLDLKECYQFAEYLFKPQLISDKFSPEDGLGPLMAKSVKKAGASINSMKANTSTNPNGLGTSHINTNVGDNNSTASSSNISPEQVYSLLLTNVIITGSTSLIEGMEQRIIKELSIRFPQYKLTTFANQVMMDRKIQGWLGALTMANLPSWSLGKWYSKEDYETLKRDRKQSQATNATN
binding result [1]: binds

B6: Sfh1, subunit of RSC (natural protein)
chain: MSHQNQLIPQAYISNFHNRLTNEDDGIPIFTMAQQTRQHKRAKVVNYAEYDNDLFDEFNMNGSNFNNADTHYKDNAVSHENTPALTNGVTMDGSEYNVLENMNGADSIISNNKYDAGSNMVVESLSGLNSNNNASNGPSNKAQAQDIGNAVLPDLQDQHHNPFNILRYPKIRDTFINGKVVSPYRLNTDQETKANANSGEAIMIPITLDIEHMGHTIKDQFLWNYNDDSISPEEFASIYCKDLDMTSATLQTQIANIIKEQLKDLENIAATEIMSDLHVIINLTCNLQDRFFEDNFQWNLNDKSLTPERFATSIVQDLGLTREFIPLISQSLHETILKIKKDWVDGHLIQDHVPNDAAFGYLSGIRLDIDELGSNWCPRVEILTKEEIQKREIEKERNLRRLKRETDRLSRRGRRRLDDLETTMRM
binding result (Rsc8, subunit of RSC): binds

B7
binding result [2]: binds
